Measured values from patent US20240409935A1 (UNM RAINFOREST INNOVATIONS, published 2024).

B1: ALIX (cellular) (other, UniProt Q8WUM4 2-868, looked up)
chain: ATFISVQLKKTSEVDLAKPLVKFIQQTYPSGGEEQAQYCRAAEELSKLRRAAVGRPLDKHEGALETLLRYYDQICSIEPKFPFSENQICLTFTWKDAFDKGSLFGGSVKLALASLGYEKSCVLFNCAALASQIAAEQNLDNDEGLKIAAKHYQFASGAFLHIKETVLSALSREPTVDISPDTVGTLSLIMLAQAQEVFFLKATRDKMKDAIIAKLANQAADYFGDAFKQCQYKDTLPKEVFPVLAAKHCIMQANAEYHQSILAKQQKKFGEEIARLQHAAELIKTVASRYDEYVNVKDFSDKINRALAAAKKDNDFIYHDRVPDLKDLDPIGKATLVKSTPVNVPISQKFTDLFEKMVPVSVQQSLAAYNQRKADLVNRSIAQMREATTLANGVLASLNLPAAIEDVSGDTVPQSILTKSRSVIEQGGIQTVDQLIKELPELLQRNREILDESLRLLDEEEATDNDLRAKFKERWQRTPSNELYKPLRAEGTNFRTVLDKAVQADGQVKECYQSHRDTIVLLCKPEPELNAAIPSANPAKTMQGSEVVNVLKSLLSNLDEVKKEREGLENDLKSVNFDMTSKFLTALAQDGVINEEALSVTELDRVYGGLTTKVQESLKKQEGLLKNIQVSHQEFSKMKQSNNEANLREEVLKNLATAYDNFVELVANLKEGTKFYNELTEILVRFQNKCSDIVFARKTERDELLKDLQQSIAREPSAPSIPTPAYQSSPAGGHAPTPPTPAPRTMPPTKPQPPARPPPPVLPANRAPSATAPSPVGAGTAAPAPSQTPGSAPPPQAQGPPYPTYPGYPGYCQMPMPMGYNPYAYGQYNMPYPPVYHQSPGQAPYPGPQQPSYPFPQPPQQSYYPQQ
notes: also called PDCD6IP
B4: endogenous PKR (enzyme, UniProt P19525 2-551, looked up)
chain: AGDLSAGFFMEELNTYRQKQGVVLKYQELPNSGPPHDRRFTFQVIIDGREFPEGEGRSKKEAKNAAAKLAVEILNKEKKAVSPLLLTTTNSSEGLSMGNYIGLINRIAQKKRLTVNYEQCASGVHGPEGFHYKCKMGQKEYSIGTGSTKQEAKQLAAKLAYLQILSEETSVKSDYLSSGSFATTCESQSNSLVTSTLASESSSEGDFSADTSEINSNSDSLNSSSLLMNGLRNNQRKAKRSLAPRFDLPDMKETKYTVDKRFGMDFKEIELIGSGGFGQVFKAKHRIDGKTYVIKRVKYNNEKAEREVKALAKLDHVNIVHYNGCWDGFDYDPETSDDSLESSDYDPENSKNSSRSKTKCLFIQMEFCDKGTLEQWIEKRRGEKLDKVLALELFEQITKGVDYIHSKKLIHRDLKPSNIFLVDTKQVKIGDFGLVTSLKNDGKRTRSKGTLRYMSPEQISSQDYGKEVDLYALGLILAELLHVCDTAFETSKFFTDLRDGIISDIFDKKEKTLLQKLLSKKPEDRPNTSEILRTLTVWKKSPEKNERHTC
notes: also called EIF2AK2; Protein Kinase R

Tests used:
APEX2-eIF2α = biological target: T1, APEX2-eIF2α (UniProt P05198 1-315); experiment: APEX2-eIF2α proximity biotinylation, LC/MS/MS, LLOMe against control
T1 construct: also called APEX2-eIF2α fusion
T1 sequence (P05198 whole entry, the tested form may be a part): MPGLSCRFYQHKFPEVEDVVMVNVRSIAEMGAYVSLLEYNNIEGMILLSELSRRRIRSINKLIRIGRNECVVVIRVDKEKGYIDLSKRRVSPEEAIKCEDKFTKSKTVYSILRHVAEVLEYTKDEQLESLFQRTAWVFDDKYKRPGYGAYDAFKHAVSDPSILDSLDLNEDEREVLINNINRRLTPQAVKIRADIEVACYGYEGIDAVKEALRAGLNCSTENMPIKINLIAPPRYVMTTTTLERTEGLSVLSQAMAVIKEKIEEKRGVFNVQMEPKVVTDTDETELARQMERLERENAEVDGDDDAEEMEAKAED

FLAG-PKR = biological target: T2, FLAG-PKR (UniProt P19525 1-551); experiment: co-IP of FLAG-PKR and PACT in HEK293T cells
T2 construct: not shown: FLAG tag

FLAG-ALIX (full length) [1] = biological target: T3, FLAG-ALIX (full length) (UniProt Q8WUM4 1-868); experiment: co-IP with anti-FLAG from HEK293T cells, 1 mM LLOMe 30 min
T3 construct: also called full-length ALIX; not shown: FLAG tag
T3 sequence (looked up): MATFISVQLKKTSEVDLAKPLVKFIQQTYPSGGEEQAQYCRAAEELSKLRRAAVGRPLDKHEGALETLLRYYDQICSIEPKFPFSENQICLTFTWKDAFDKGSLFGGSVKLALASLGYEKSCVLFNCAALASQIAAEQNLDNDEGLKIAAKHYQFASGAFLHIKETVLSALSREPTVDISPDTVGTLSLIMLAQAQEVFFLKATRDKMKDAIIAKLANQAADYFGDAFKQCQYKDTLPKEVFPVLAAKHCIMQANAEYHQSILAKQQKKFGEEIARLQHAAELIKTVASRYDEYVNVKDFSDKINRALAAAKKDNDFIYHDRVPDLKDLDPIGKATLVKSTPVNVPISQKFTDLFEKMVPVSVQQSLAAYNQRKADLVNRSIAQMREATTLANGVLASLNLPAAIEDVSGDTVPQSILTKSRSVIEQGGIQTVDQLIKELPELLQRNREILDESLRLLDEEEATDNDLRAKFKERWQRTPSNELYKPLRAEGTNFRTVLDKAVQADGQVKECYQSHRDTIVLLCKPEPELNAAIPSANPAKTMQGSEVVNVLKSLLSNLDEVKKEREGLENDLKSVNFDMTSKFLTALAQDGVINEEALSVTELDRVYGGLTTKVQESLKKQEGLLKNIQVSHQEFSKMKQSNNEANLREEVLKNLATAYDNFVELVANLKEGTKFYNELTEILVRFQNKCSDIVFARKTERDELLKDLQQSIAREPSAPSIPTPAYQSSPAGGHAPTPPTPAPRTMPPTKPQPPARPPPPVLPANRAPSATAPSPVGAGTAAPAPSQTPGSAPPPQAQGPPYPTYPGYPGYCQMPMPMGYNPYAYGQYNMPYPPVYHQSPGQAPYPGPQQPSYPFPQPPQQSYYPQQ

FLAG-eIF2α = biological target: T4, FLAG-eIF2α (UniProt P05198 1-315); experiment: as above
T4 construct: not shown: FLAG tag
T4 sequence (P05198 whole entry): as the sequence (P05198 whole entry, the tested form may be a part) above

endogenous PKR = biological target: B4; experiment: co-IP with anti-GFP from HEK293T cells transfected with FLAG or FLAG-ALIX, 1 mM LLOMe 30 min
ALIX (cellular) = biological target: B1; experiment: confocal microscopy of GFP-PKR/PACT and ALIX in U2OS cells, 2 mM LLOMe
FLAG-ALIX (full length) [2] = biological target: T3, FLAG-ALIX (full length); experiment: co-IP with anti-FLAG from HEK293T cells expressing FLAG tagged ALIX constructs and Myc-PKR

B1 was tested, and the “fold increase in association with eIF2α (LLOMe/CTR)” value (APEX2-eIF2α) was > 10 fold.

B2: endogenous PACT (other, UniProt O75569 1-313, looked up)
chain: MSQSRHRAEAPPLEREDSGTFSLGKMITAKPGKTPIQVLHEYGMKTKNIPVYECERSDVQIHVPTFTFRVTVGDITCTGEGTSKKLAKHRAAEAAINILKANASICFAVPDPLMPDPSKQPKNQLNPIGSLQELAIHHGWRLPEYTLSQEGGPAHKREYTTICRLESFMETGKGASKKQAKRNAAEKFLAKFSNISPENHISLTNVVGHSLGCTWHSLRNSPGEKINLLKRSLLSIPNTDYIQLLSEIAKEQGFNITYLDIDELSANGQYQCLAELSTSPITVCHGSGISCGNAQSDAAHNALQYLKIIAERK
notes: also called PRKRA
B2: binds (FLAG-PKR); binds (FLAG-ALIX (full length) [1]); binds (FLAG-eIF2α).

B3: GFP-PACT (other, UniProt O75569 1-313, looked up)
chain: MSQSRHRAEAPPLEREDSGTFSLGKMITAKPGKTPIQVLHEYGMKTKNIPVYECERSDVQIHVPTFTFRVTVGDITCTGEGTSKKLAKHRAAEAAINILKANASICFAVPDPLMPDPSKQPKNQLNPIGSLQELAIHHGWRLPEYTLSQEGGPAHKREYTTICRLESFMETGKGASKKQAKRNAAEKFLAKFSNISPENHISLTNVVGHSLGCTWHSLRNSPGEKINLLKRSLLSIPNTDYIQLLSEIAKEQGFNITYLDIDELSANGQYQCLAELSTSPITVCHGSGISCGNAQSDAAHNALQYLKIIAERK
notes: not shown: GFP
B3: binds (endogenous PKR); binds (ALIX (cellular)).

B4: binds (FLAG-ALIX (full length) [1]).

B5: Myc-PKR (enzyme, UniProt P19525 1-551, looked up)
chain: MAGDLSAGFFMEELNTYRQKQGVVLKYQELPNSGPPHDRRFTFQVIIDGREFPEGEGRSKKEAKNAAAKLAVEILNKEKKAVSPLLLTTTNSSEGLSMGNYIGLINRIAQKKRLTVNYEQCASGVHGPEGFHYKCKMGQKEYSIGTGSTKQEAKQLAAKLAYLQILSEETSVKSDYLSSGSFATTCESQSNSLVTSTLASESSSEGDFSADTSEINSNSDSLNSSSLLMNGLRNNQRKAKRSLAPRFDLPDMKETKYTVDKRFGMDFKEIELIGSGGFGQVFKAKHRIDGKTYVIKRVKYNNEKAEREVKALAKLDHVNIVHYNGCWDGFDYDPETSDDSLESSDYDPENSKNSSRSKTKCLFIQMEFCDKGTLEQWIEKRRGEKLDKVLALELFEQITKGVDYIHSKKLIHRDLKPSNIFLVDTKQVKIGDFGLVTSLKNDGKRTRSKGTLRYMSPEQISSQDYGKEVDLYALGLILAELLHVCDTAFETSKFFTDLRDGIISDIFDKKEKTLLQKLLSKKPEDRPNTSEILRTLTVWKKSPEKNERHTC
notes: not shown: Myc tag
B5: binds (FLAG-ALIX (full length) [2]).

B6: GFP-PKR (enzyme, UniProt P19525 1-551, looked up)
chain: MAGDLSAGFFMEELNTYRQKQGVVLKYQELPNSGPPHDRRFTFQVIIDGREFPEGEGRSKKEAKNAAAKLAVEILNKEKKAVSPLLLTTTNSSEGLSMGNYIGLINRIAQKKRLTVNYEQCASGVHGPEGFHYKCKMGQKEYSIGTGSTKQEAKQLAAKLAYLQILSEETSVKSDYLSSGSFATTCESQSNSLVTSTLASESSSEGDFSADTSEINSNSDSLNSSSLLMNGLRNNQRKAKRSLAPRFDLPDMKETKYTVDKRFGMDFKEIELIGSGGFGQVFKAKHRIDGKTYVIKRVKYNNEKAEREVKALAKLDHVNIVHYNGCWDGFDYDPETSDDSLESSDYDPENSKNSSRSKTKCLFIQMEFCDKGTLEQWIEKRRGEKLDKVLALELFEQITKGVDYIHSKKLIHRDLKPSNIFLVDTKQVKIGDFGLVTSLKNDGKRTRSKGTLRYMSPEQISSQDYGKEVDLYALGLILAELLHVCDTAFETSKFFTDLRDGIISDIFDKKEKTLLQKLLSKKPEDRPNTSEILRTLTVWKKSPEKNERHTC
notes: not shown: GFP
B6: binds (ALIX (cellular)).
